Measurements: PMC3570589

Assays:
Test in all cases: ITC
[1] = biological target: H3_((28–43))K36me3 peptide (UniProt P68431)
[2] = biological target: H3_((28–43))K36me2 peptide (UniProt P68431)
[3] = biological target: H3_((28–43))K36me1 peptide (UniProt P68431)
[4] = biological target: H3_((27–46))K36me3 peptide (UniProt P68431)

Chain of PHF1 Tudor domain protein, wild-type (ITC and silver-stained peptide pull-downs) (O43189 29-86): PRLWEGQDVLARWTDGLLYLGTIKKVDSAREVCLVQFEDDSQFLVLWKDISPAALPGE

Ka [1]	Kd [1]	dH [1]	stoichiometry N [1]	Ka [2]	Kd [2]	dH [2]	stoichiometry N [2]	dH [3]	stoichiometry N [3]	Kd [4]	Substance
43900 M⁻¹	22.8 µM	-6.47 kcal/mol									PHF1 Tudor domain protein, E66K (from UniProt O43189-1 29-86) (domain or fragment)
33200 M⁻¹	30.1 µM	-1.35 kcal/mol	0.68								PHF1 Tudor domain protein, W41A (from UniProt O43189-1 29-86) (domain or fragment)
238000 M⁻¹	4.2 µM	-5.63 kcal/mol	0.79	51800 M⁻¹	19.3 µM	-3.99 kcal/mol	0.94	-0.817 kcal/mol	0.7		PHF1 Tudor domain protein, wild-type (ITC and silver-stained peptide pull-downs) (from UniProt O43189-1 29-86) (domain or fragment)
										5 to 7 µM	PHF19 Tudor domain protein, wild-type (from UniProt Q5T6S3 40-93) (domain or fragment)
